Among the data in patent publication US20040086863A1 are IRS-1 tyrosine phosphorylation in insulin-treated cells and insulin-dependent GLUT4myc membrane translocation in L6GLUT4myc myoblasts values, retold here.

Assay [1] addresses IRS-1, endogenous in COS cells. In words: cell-based or functional assay.
The target in assay [2] is IRS-1, endogenous in Rat-1 fibroblasts and L6GLUT4myc myoblasts (UniProt P35570). In words: cell-based or functional assay.
IRS-1, endogenous in Rat-1 fibroblasts and L6GLUT4myc myoblasts, sequence (P35570 whole entry): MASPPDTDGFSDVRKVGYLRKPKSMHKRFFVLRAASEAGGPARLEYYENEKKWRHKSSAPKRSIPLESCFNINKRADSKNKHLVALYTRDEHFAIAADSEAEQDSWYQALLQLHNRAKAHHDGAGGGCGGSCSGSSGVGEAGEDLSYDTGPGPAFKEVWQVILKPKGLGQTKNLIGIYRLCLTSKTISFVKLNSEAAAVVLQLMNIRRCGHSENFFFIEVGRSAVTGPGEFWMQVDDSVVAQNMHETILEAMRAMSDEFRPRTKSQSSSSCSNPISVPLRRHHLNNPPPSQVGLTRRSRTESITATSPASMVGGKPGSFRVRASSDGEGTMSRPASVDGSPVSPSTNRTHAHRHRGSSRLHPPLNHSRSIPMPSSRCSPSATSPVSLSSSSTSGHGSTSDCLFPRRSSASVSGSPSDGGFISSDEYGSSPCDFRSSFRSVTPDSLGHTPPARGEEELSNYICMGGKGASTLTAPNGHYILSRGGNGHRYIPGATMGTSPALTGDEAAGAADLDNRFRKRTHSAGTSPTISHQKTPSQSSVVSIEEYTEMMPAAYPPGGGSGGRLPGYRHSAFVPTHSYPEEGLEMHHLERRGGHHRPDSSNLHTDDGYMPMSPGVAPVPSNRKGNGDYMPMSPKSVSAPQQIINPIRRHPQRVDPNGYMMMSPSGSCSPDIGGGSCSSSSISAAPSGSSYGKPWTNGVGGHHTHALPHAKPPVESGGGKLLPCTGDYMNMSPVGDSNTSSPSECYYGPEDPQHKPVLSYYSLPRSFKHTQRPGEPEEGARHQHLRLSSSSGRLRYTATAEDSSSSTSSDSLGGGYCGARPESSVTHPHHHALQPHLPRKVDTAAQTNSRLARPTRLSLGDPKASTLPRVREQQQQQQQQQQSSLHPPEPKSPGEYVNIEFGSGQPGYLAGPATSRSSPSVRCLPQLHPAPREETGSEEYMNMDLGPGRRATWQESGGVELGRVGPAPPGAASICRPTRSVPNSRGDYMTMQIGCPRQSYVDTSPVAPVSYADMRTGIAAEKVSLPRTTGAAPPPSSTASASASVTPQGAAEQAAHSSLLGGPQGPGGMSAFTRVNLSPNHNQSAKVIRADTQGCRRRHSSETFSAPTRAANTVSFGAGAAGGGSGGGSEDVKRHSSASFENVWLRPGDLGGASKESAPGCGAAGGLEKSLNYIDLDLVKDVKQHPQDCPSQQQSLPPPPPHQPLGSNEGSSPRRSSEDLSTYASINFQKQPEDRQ

IRS-1, endogenous in COS cells, sequence (Q28224 whole entry): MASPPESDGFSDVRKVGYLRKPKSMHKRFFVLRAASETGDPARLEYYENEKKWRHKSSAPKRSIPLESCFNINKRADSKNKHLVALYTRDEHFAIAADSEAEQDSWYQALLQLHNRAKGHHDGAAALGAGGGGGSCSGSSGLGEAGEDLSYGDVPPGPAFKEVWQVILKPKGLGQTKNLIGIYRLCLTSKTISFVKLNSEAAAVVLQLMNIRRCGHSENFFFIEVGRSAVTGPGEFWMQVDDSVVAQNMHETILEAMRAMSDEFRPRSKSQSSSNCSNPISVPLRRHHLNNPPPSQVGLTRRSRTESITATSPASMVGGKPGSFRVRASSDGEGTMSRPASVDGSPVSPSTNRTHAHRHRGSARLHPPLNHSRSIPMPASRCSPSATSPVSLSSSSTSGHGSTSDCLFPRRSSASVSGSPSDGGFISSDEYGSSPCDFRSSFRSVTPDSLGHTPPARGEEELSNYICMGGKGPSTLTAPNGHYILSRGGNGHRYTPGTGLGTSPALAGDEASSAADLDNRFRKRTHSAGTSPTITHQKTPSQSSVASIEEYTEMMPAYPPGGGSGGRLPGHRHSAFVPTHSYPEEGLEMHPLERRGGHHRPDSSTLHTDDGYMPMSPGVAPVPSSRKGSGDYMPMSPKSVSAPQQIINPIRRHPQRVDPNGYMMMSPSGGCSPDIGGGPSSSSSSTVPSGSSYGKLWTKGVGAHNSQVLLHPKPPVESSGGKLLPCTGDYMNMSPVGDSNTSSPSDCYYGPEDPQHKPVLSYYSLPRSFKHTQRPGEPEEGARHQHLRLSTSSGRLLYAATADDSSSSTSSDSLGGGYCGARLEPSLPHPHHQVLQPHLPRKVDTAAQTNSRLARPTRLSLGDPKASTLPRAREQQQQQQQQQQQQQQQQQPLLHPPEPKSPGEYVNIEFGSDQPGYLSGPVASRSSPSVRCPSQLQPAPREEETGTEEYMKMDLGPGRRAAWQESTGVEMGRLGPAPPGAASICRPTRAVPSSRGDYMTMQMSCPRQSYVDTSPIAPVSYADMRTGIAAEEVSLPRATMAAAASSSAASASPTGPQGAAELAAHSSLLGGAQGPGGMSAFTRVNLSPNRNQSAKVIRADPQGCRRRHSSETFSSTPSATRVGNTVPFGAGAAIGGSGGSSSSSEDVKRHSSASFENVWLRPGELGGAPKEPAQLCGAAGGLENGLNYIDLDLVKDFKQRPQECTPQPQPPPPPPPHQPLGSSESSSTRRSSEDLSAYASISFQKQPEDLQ

In assay [1], “HA-tagged dominant-negative PHIP (DN-PHIP), PHIP PBR region alone (residues 8-209) (from UniProt Q8VDD9 927-1128)” had an IRS-1 tyrosine phosphorylation in insulin-treated cells greater than 5 fold. This substance also came in with an insulin-dependent GLUT4myc membrane translocation in L6GLUT4myc myoblasts in assay [2] greater than 90%.
